Laboratory results from the RNAGym collection of RNA variant scans (doi:10.1073/pnas.2313332121).

B1: TPR t1 (parent)
chain: GACCAAUCUGCCCUCAGAGCUCGAGAACAUCUUCGGAUGCAGAGGAGGCAGGCUUCGGUGGCGCGAUAGCGCCAACGUCCUCAACCUCCAAUGCAUCCCACCACAUGAUGAUGCCUGAAGAGCCUUGGUUUUUUG

Variants of: B1
Assay: polymerase ribozyme fitness, log enrichment relative to wild type (log ratio); higher = more active; in vitro selection for triplet polymerase activity
Procedure, shortened: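 Streptavidin-bead capture of gel-excised extended constructs, followed by RT-PCR, closed a single triplicate in vitro selection round. That round began by annealing PCR-built, transcribed mutant libraries of each subunit of a heterodimeric triplet polymerase ribozyme with a biotinylated primer, the partner subunit and triplets, then incubating them frozen at −7 °C. After Illumina sequencing of inputs and outputs, genotypes needed ≥10 input reads and ≥1 read per output. Fitness is the base-2 logarithm of genotype enrichment over wild-type enrichment, using inverse-variance-weighted replicate averages.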

Variant	polymerase ribozyme fitness (log ratio)
C11A U67C	-5.83
C11U C22G A26C	-3.57
C11U C56A U116C	-2.85
C11A G36U G48C	-3.57
C11G A18C U125A	-2.13
C11U C49U C101A	-2.29
C11G G17A G58A U106A U129A	-5.54
C11A G48A C70U C114U	-6.22
C11G G19U C82U	-5.29
C11U A18C A29C C101A G110C	-7.19
C11U G52U C70A	-1.84
C11G G127C	-0.995
C11G A50C U125A	-0.245
C11G A37C C88G	-1.94
C11G A41C U87A G122A	-0.672
C11U A46U C86G C104U	-2.24
C11G C20U A26C A27G G44U C114U	-6.01
C11A A50G U126A	-3.95
C11A C15A G51U G71A C99A G113C	-8.01
C11G U78C	0.168
C11U C72G	-0.586
C11A C49U C73A C86U A95G U106G C123U	-0.375
C11U C34G A46U G120A A121G	-5.6
C11U A27U G52C G61C	-4.18

Variant	polymerase ribozyme fitness (log ratio)
C11G A27G G63C G93A	-3.72
C11G G61C A66U A75C C114U	-3.81
C11A U78C	-0.895
C11G C13U C101G	-1.63
C11A C56A G69A A84G A121C	-4.27
C11A C56U A105U	-3.49
C11A C94A U116A G120C	-0.809
C11U G63A C72A	-7.14
C11U C79G	-1.69
C11U G45C	-1.59
C11U G63C C80U	-2.73
C11U A24U G65C A103C A108U A111U	-6.52
C11U C72U A83U C101G	-1.79
C11A U78A G120A	1.31
C11G C28A	-2.78
C11A G60U	-0.589
C11A A95G	-1.37
C11A C73U C76A U78G U131A	-4.06
C11U C98U	-1.79
C11G C88U U116C	-0.109
C11A C40A C49G C94U	-3.79
C11G U33G G93U U112A G122U	-6.28
C11G C13U U32C G65A G113C G120U	-6.75
C11U C97A	-4.6

Variant	polymerase ribozyme fitness (log ratio)
C11U A27U	-1.89
C11G C72A C79U A90G C101G A121C U131A	0.276
C11G G42C G69U A111C	-0.0543
C11A C124U	0.668
C11G A18U G48U C49U G61A	-3.32
C11U C12A U14G G36U	-4.16
C11G A41C	-0.501
C11U A50C G60U G77A G122A	0.303
C11U A66C C94U	-1.69
C11G A18G C49G C56U	-3.38
C11U C12A A41C C56G	-2.42
C11A U116A	-4
C11A G113A	-3.12
C11A A111U	-4.43
C11G C12A G63A	-0.541
C11A C49A U59A A91G	-2.95
C11A A18U A68G G120U	-4.2
C11A G61A G93A C101G U112A U132A	-1.04
C11G G63A	-0.354
C11G G63C	-0.406
C11A G39A	-2.5
C11G G36U G47U G63A U78G	-2.93
C11A C13U A41U	-2.84
C11G C28A C56U C124G	-3.7

Variant	polymerase ribozyme fitness (log ratio)
C11G U96G	-0.325
C11A A121C	1.02
C11G C73U C80U	-0.636
C11G C56G	0.087
C11G A37U G69A A83C A121C	-1.05
C11A U21C G52C A121C	0.244
C11U C12G C15U C70U	-1.83
C11U A37G U96G	-2.69
C11G C13A C82G A84G	-1.63
C11A C70A A90G	-3.13
C11U A43U C53G	-2.46
C11U C15A A26G C53G G63U G120C	-4.53
C11G C12U G113A A118U	-3.33
C11A G42C C72A	-1.79
C11A U106A G110U	-1.4
C11G C22G A41G G128C	-5.82
C11A C12A U14G A18C G63C C85U A103G U106A G107A A108C C114U G117C	-6.98
C11G C40G G42U C73G U87A	-4.66
C11U A26G G45A G58A	-5.7
C11G C13A G117C U132A U134G	-2.05
C11A G61C	-2.39
C11G A37U A41U A95C U106C C124A	-1.05
C11G C20G C73U U106A G107A	-5.37
C11U C40U G122A	0.00533

Variant	polymerase ribozyme fitness (log ratio)
C11A G42U U106A	-3.49
C11G G23C U32C G61A C86U U133A	-5.64
C11G A83U U106C	-0.637
C11U G39U C79U G93U	-2.7
C11G G17A U81A C85U G117C	-4.91
C11U G23A G110C U130G	-6.32
C11A C13A A74C	-2.72
C11A G47C C72G	-3.64
C11U G52A C80U	-2.45
C11G C76U G120A	2.23
C11A A46C G63A U131G	-2.39
C11A G47C	-2.77
C11G A18G C97U G110A	-3.11
C11G C15G G63C A68U C80U C115G G127C G135C	-5.08
C11A U54G U81A	-2.11
C11G C12A C40U C99U G117A C124G	-6.76
C11U C34G C89U A105C U106A	-4.08
C11G U59G U92A C114U A121C G128U	-3.21
C11A C64U U78C C80U A83G	-4.97
C11U A18G G19C A43G G63U	-4.05
C11U C94U	-1.24
C11U C94G	-1.27
C11G C34U C49A G61A C123U	-2.15
C11A C12U U38A U78C U96A	-2.53

Variant	polymerase ribozyme fitness (log ratio)
C11U C53A C97U	-1.37
C11G C40G C70G C89U	-5.83
C11G A27U C49A A84U C114A G120A U125A	-5.59
C11G G42U C124U	0.5
C11U C12G C28U U32C C49A C56G	-2.91
C11U G42C	-2.01
C11A A37C A50U	-2.75
C11G G71U	0.0897
C11U A43U G60U A90C	-1.62
C11A C28G G77U C98U G110U G135U	-3.7
C11U C56A C123U	1.37
C11G C13G A111C A121G	0.62
C11U A26U A46C C49G C72U C86G	-6.59
C11A C64A A108U G110A	-6.85
C11U C20A U87A A91C A118U	-2.95
C11U C22A A37G A68G C72A U109A	-5.84
C11G C115G	-1.35
C11G G42C C53A	-1.03
C11U G45A G48A	-2.77
C11G G45U	-2.69
C11U C34A U87A	-3.12
C11U C123U	1.77
C11A G48U G60U C123A	0.672
C11U G19A C53G U55A A91C	-2.36

Variant	polymerase ribozyme fitness (log ratio)
C11A C72G A111U	-6.18
C11A C70A	-2.06
C11G C12G C73U C123G U125A	-2.92
C11G G19A U38G	-2.63
C11U C102U	-2.09
C11U C20A A29U G117U	-4.71
C11U A41U C62U C85A C102U C114G G120C	-6.27
C11G G77A	-0.375
C11G U21A C53A C97G	-3.53
C11G G36A G47C G117A U129A	-4.45
C11U C15G U112A	-2.98
C11A C13G C115A	-6.59
C11G C40U C53U U87A A90U U112A G127C	-2.43
C11G C15G G47C U116C	-2.52
C11G A66G U106A	-0.837
C11G A18U G44A G69U	0.139
C11U A43G	-2.11
C11U A26U C49G C73U	-3.93
C11G G69C	-1.7
C11U C15U G61A U78A G93A	-2.54
C11U C34A	-2.54
C11U C73U C114A C123U	-2.7
C11G G51U C62A G71A C89U C97U	-6.66
